The results in this text go back to publication PMC5419587 (Virology, 2017).

The target in the experiment is T1, SAMD9 1-385, purified (human, UniProt Q5K651 1-385).
T1 sequence (looked up): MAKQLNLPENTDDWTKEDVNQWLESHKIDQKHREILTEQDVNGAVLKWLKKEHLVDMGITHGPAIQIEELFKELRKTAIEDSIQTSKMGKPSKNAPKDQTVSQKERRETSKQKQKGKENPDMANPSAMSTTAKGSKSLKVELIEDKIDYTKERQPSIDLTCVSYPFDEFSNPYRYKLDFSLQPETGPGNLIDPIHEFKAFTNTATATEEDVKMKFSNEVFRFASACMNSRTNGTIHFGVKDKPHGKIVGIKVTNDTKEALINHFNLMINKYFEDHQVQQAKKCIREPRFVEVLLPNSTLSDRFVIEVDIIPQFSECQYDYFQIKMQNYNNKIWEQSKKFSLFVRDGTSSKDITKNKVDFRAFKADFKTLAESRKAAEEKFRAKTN
As to the kind of experiment: SPR. A general note: Surface plasmon resonance follows binding to a sensor surface in real time, without labels.

B1: MYXV M062 protein, purified (natural protein)
chain: MGVQHKLDIFLVSEGIAIKEANLLKGDSYGCTIKIKLDKEKTFKFVIVLEPEWIDEIKPIYMKVNDESVELELDYKDAIKRIYSAEVVLCSDSVINLFSDVDVSYTCEYPTIKVNTIKKYYSVQNRGMTYVHIESPINTKDKCWFVEKNGWYEDRTHS
What is called Kd is the equilibrium constant for the complex coming apart. High values mean lower affinity, low ones higher affinity. For the molecule B1, binding was characterised by a dissociation constant (Kd) of 10 ± 5 µM.
